1 molecule from publication PMC5317272 (The Biochemical journal, 2016) can be followed below.

Assay [1] concerns the target MARK1 kinase–UBA domain fragment (residues 45–371), tag-cleaved (human, UniProt Q9P0L2 45-371). The assay can be described thus: SAXS.
Assay [2] has as its target MARK1 kinase–UBA domain fragment (residues 45–371), hexahistidine tag intact (human, UniProt Q9P0L2 45-371). The assay can be described thus: SPR.

Sequence of MARK1 kinase–UBA domain fragment (residues 45–371), hexahistidine tag intact (Q9P0L2 45-371): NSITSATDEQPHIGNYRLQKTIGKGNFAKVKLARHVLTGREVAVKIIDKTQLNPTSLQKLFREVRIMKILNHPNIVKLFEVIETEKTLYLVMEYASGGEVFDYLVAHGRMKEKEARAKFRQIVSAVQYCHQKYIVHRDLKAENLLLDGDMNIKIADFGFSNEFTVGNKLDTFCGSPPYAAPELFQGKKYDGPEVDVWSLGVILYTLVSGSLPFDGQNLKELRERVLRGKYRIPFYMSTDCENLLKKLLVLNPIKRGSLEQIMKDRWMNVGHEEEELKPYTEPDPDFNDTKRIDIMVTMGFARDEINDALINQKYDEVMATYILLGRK
Sequence of MARK1 kinase–UBA domain fragment (residues 45–371), tag-cleaved (Q9P0L2 45-371): as above

B1: MARK1 KA1 domain (residues 683–795) (domain or fragment)
chain: not shown
By stoichiometry N is commonly meant a count of units in the complex or per binding partner. What is called Kd is the constant that tells how readily two partners part at equilibrium. For the molecule B1, in assay [1], the “stoichiometry N” value stood at 1. In assay [2], this molecule showed a Kd of 73 µM.
